Results published in publication PMC13190607.

Biological target: SARS-CoV-2 core replication-transcription complex (nsp12 polymerase with nsp7 and nsp8), elongating on RNA (SARS-CoV-2) (UniProt P0DTD1)
Experiment: single-molecule magnetic tweezers (RNA synthesis traces)

“SARS-CoV-2 nsp13 helicase (wild type) (from UniProt P0DTD1 5325-5925) (enzyme)” gave a KA of the first helicase (nsp13.1) binding to the core RTC of 0.22 nM⁻¹ and a KA of the second helicase (nsp13.2) binding to RTC-nsp13.1 of 0.47 nM⁻¹.
